The target in the assay is T1, GST-mAsxl1 (aa 1193-1514) (mouse, UniProt P59598 1193-1514).
T1 construct: also called GST-fused Asxl1 protein; source: E. coli, purified (glutathione-Sepharose beads)
T1 sequence (looked up): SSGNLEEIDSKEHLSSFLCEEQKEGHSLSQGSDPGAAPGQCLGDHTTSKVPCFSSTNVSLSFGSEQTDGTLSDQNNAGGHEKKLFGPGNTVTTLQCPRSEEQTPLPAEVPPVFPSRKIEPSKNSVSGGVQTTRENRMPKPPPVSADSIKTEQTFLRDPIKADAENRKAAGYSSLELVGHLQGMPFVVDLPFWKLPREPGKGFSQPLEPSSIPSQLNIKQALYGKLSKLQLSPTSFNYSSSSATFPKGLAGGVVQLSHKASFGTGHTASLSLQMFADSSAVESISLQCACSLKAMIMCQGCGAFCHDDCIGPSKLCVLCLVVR
Briefly: pull-down; GST pull-down; GST-mAsxl1 on glutathione-Sepharose, His-hLHX2 purified on Ni-NTA; bound protein detected by anti-His Western blot. To be noted: both partners purified. (Immunoblotting shows a protein as a band on a membrane.)

Data on one molecule can be found in article PMC12322997, “Asxl1 regulates optic cup development through interaction with Lhx2 and epigenetic modulation of Wnt signaling” (Animal Cells and Systems, 2025).

B1: His-hLhx2 (aa 42-221) (domain or fragment, human, UniProt P50458 42-221, looked up)
chain: MPSISSDRAALCAGCGGKISDRYYLLAVDKQWHMRCLKCCECKLNLESELTCFSKDGSIYCKEDYYRRFSVQRCARCHLGISASEMVMRARDLVYHLNCFTCTTCNKMLTTGDHFGMKDSLVYCRLHFEALLQGEYPAHFNHADVAAAAAAAAAAKSAGLGAAGANPLGLPYYNGVGTVQ
notes: LHX2, human (hLHX2), residues 42-221; also called His-tagged Lhx2 protein; source: E. coli, purified (Ni-NTA agarose beads)
B1: the binding result is “binds”.
